In the supplement of paper PMC10567573 one finds protein stability index data, which are given here for 94 variants.

The labels stand for the following.
B1: STX5 (parent)
chain: RSEFTLMAKRIGKDLSNTFAKLEK
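Also: lentivirally expressed fusions sorted by FACS into six bins by GFP to DsRed ratio, PSI derived from sequencing read proportions per bin multiplied by bin number.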

Variants of B1 are the subject of this data set. In words: protein stability index of a GFP-peptide fusion (GPS, HEK-293T) (PSI 1-6); higher = more stable. As to conditions: c terminus: a fixed tail appended.
RSEFTLMAKRIGKDLSNTFAGLEK [K21G]: the protein stability index came to 2.21. For RSEFTLMAKRIGKDLSNTFATLEK [K21T], the protein stability index turned out to be 2.01.

Take RSEFTLMAKRIGKDLSNTFAILEK [K21I]: the protein stability index worked out at 2.12. Next, RSEFTLMAKRIGKDLSNTFACLEK [K21C]: 2.69. Next, RSEFTLMAKRIGKDLSNTFAMLEK [K21M]: 1.94. For the variant RSEFTLMAKRIGKDLSNTFAYLEK [K21Y], the protein stability index was 1.45. Next, RSEFTLMAKRIGKDLSNTFASLEK [K21S]: 2.95.

Regarding RSEFTLMAKRIGKDLSNTFADLEK [K21D], the protein stability index amounted to 1.91. With RSEFTLMAKRIGKDLSNTFAHLEK [K21H], the protein stability index turned out to be 2.51. With RSEFTLMAKRIGKDLSNTFAALEK [K21A] the figure was 1.96. For RSEFTLMAKRIGKDLSNTFAELEK [K21E], the protein stability index came to 2.04. Next, RSEFTLMAKRIGKDLSNTFARLEK [K21R]: 2.53; RSEFTLMAKRIGKDLSNTFAFLEK [K21F]: 2.61; RSEFTLMAKRIGKDLSNTFALLEK [K21L]: 2.47. Next, RSEFTLMAKRIGKDLSNTFAPLEK [K21P]: 2.38. With RSEFTLMAKRIGKDLSNTFAQLEK [K21Q] the figure was 2.8. On to RSEFTLMAKRIGKDLSNTFAVLEK [K21V], for which the protein stability index is 1.4. Next, RSEFTLMAKRIGKDLSNTFANLEK [K21N]: 1.04; RSEFTLMAKRIGKDLSNTFAKLEG [K24G]: 4.41. Take RSEFTLMAKRIGKDLSNTFAKLEH [K24H]: the protein stability index came to 2.46. For RSEFTLMAKRIGKDLSNTFAKLEM [K24M], the protein stability index came to 3.26. For RSEFTLMAKRIGKDLSNTFAKLET [K24T], the protein stability index is 3.14.

For RSEFTLMAKRIGKDLSNTFAKLER [K24R], the protein stability index is 2.5. With RSEFTLMAKRIGKDLSNTFAKLEN [K24N] the figure was 3.22; with RSEFTLMAKRIGKDLSNTFAKLEE [K24E], 1.76; with RSEFTLMAKRIGKDLSNTFAKLEV [K24V], 2.42.

For the variant RSEFTLMAKRIGKDLSNTFAKLEL [K24L], the protein stability index is 2.38. Next, RSEFTLMAKRIGKDLSNTFAKLEY [K24Y]: 3.59; RSEFTLMAKRIGKDLSNTFAKLES [K24S]: 1.63; RSEFTLMAKRIGKDLSNTFAKLEP [K24P]: 2.42. For RSEFTLMAKRIGKDLSNTFAKLED [K24D], the protein stability index came to 2.61. Consider RSEFTLMAKRIGKDLSNTFAKLEQ [K24Q], for which the protein stability index was determined as 1.66. Next, RSEFTLMAKRIGKDLSQTFAKLEK [N17Q]: 1.61; RSEFTLMAKRIGKDLSITFAKLEK [N17I]: 3.01. With RSEFTLMAKRIGKDLSTTFAKLEK [N17T] the figure was 2.75; with RSEFTLMAKRIGKDLSATFAKLEK [N17A], 3.04; with RSEFTLMAKRIGKDLSCTFAKLEK [N17C], 2.02. As to RSEFTLMAKRIGKDLSLTFAKLEK [N17L], the protein stability index came out at 2.21.

With RSEFTLMAKRIGKDLSDTFAKLEK [N17D], the protein stability index was determined as 2.63.

On to RSEFTLMAKRIGKDLSWTFAKLEK [N17W], for which the protein stability index came out at 1.81. With RSEFTLMAKRIGKDLSGTFAKLEK [N17G] the figure was 3. Next, RSEFTLMAKRIGKDLSETFAKLEK [N17E]: 3.15; RSEFTLMAKRIGKDLSFTFAKLEK [N17F]: 2.34.

As for RSEFTLMAKRIGKDLSPTFAKLEK [N17P], the protein stability index was found to be 2.5. With RSEFTLMAKRIGKDLSYTFAKLEK [N17Y] the figure was 1.93; with RSEFTLMAKRIGKDLSSTFAKLEK [N17S], 3.13; with RSEFTLMAKRIGKDLVNTFAKLEK [S16V], 3.75. With RSEFTLMAKRIGKDLINTFAKLEK [S16I] the figure was 3.35; with RSEFTLMAKRIGKDLLNTFAKLEK [S16L], 2.89; with RSEFTLMAKRIGKDLRNTFAKLEK [S16R], 3.34.

Regarding RSEFTLMAKRIGKDLQNTFAKLEK [S16Q], the protein stability index stood at 2.14. With RSEFTLMAKRIGKDLPNTFAKLEK [S16P] the figure was 2.46. As for RSEFTLMAKRIGKDLKNTFAKLEK [S16K], the protein stability index was 3.85. Next, RSEFTLMAKRIGKDLMNTFAKLEK [S16M]: 1.72; RSEFTLMAKRIGKDLWNTFAKLEK [S16W]: 1.99. With RSEFTLMAKRIGKDLYNTFAKLEK [S16Y] the figure was 3.19; with RSEFTLMAKRIGKDLSNTFAKLCK [E23C], 3.47; with RSEFTLMAKRIGKDLSNTFAKLMK [E23M], 1.34.

As to RSEFTLMAKRIGKDLSNTFAKLHK [E23H], the protein stability index was 3.8.

With RSEFTLMAKRIGKDLSNTFAKLLK [E23L], the protein stability index was 3. Next, RSEFTLMAKRIGKDLSNTFAKLKK [E23K]: 5.04. With RSEFTLMAKRIGKDLSNTFAKLIK [E23I] the figure was 2.84; with RSEFTLMAKRIGKDLSNTFAKLWK [E23W], 2.37. With RSEFTLMAKRIGKDLSNTFAKLSK [E23S] the figure was 2.18; with RSEFTLMAKRIGKDLSNTFAKLFK [E23F], 2.65; with RSEFTLMAKRIGKDLSNTFAKLPK [E23P], 2.32.

In the case of RSEFTLMAKRIGKDLSNTFAKLAK [E23A], the protein stability index amounted to 1.98.

Turning to RSEFTLMAKRIGKDLSNTFAKLDK [E23D], the protein stability index was 2.2. Next, RSEFTLMAKRIGKDLSNVFAKLEK [T18V]: 2.21. Next, RSEFTLMAKRIGKDLSNSFAKLEK [T18S]: 1; RSEFTLMAKRIGKDLSNQFAKLEK [T18Q]: 2.02; RSEFTLMAKRIGKDLSNAFAKLEK [T18A]: 2.31. In the case of RSEFTLMAKRIGKDLSNFFAKLEK [T18F], the protein stability index came to 4.45. Next, RSEFTLMAKRIGKDLSNHFAKLEK [T18H]: 2.41; RSEFTLMAKRIGKDLSNDFAKLEK [T18D]: 3.07.

In the case of RSEFTLMAKRIGKDLSNKFAKLEK [T18K], the protein stability index was 3.25. Regarding RSEFTLMAKRIGKDLSNWFAKLEK [T18W], the protein stability index stood at 1.96. With RSEFTLMAKRIGKDLSNGFAKLEK [T18G] the figure was 3.21; with RSEFTLMAKRIGKDLSNMFAKLEK [T18M], 2.63.

Regarding RSEFTLMAKRIGKDLSNYFAKLEK [T18Y], the protein stability index is 3.54. With RSEFTLMAKRIGKDLSNIFAKLEK [T18I] the figure was 3.4; with RSEFTLMAKRIGKDLSNCFAKLEK [T18C], 2.41; with RSEFTLMAKRIGKDLSNNFAKLEK [T18N], 1.27. For the variant RSEFTLMAKRIGKDLSNRFAKLEK [T18R], the protein stability index turned out to be 1.77.

For RSEFTLMAKRIGKDLSNPFAKLEK [T18P], the protein stability index worked out at 2.45.

With RSEFTLMAKRIGKDLSNEFAKLEK [T18E], the protein stability index came out at 2.94. With RSEFTLMAKRIGKDLSNTFAKFEK [L22F] the figure was 2.67; with RSEFTLMAKRIGKDLSNTFAKDEK [L22D], 4.25. As for RSEFTLMAKRIGKDLSNTFAKYEK [L22Y], the protein stability index amounted to 1.5.

Take RSEFTLMAKRIGKDLSNTFAKPEK [L22P]: the protein stability index turned out to be 3.06.

On to RSEFTLMAKRIGKDLSNTFAKMEK [L22M], for which the protein stability index came to 2.58. In the case of RSEFTLMAKRIGKDLSNTFAKAEK [L22A], the protein stability index worked out at 2.29. For the variant RSEFTLMAKRIGKDLSNTFAKQEK [L22Q], the protein stability index is 2.92. Next, RSEFTLMAKRIGKDLSNTFAKSEK [L22S]: 3.17.
